Laboratory results: US10526371B2, “Hydrogel-forming peptides” (Universiteit Gent, priority 2015, dated 2020)
Numbered stars: 1 amine (or outer) side, 2 acyl side, 3 side chain; on linkers, the order of the positions; unused ones are H or OH. Square brackets hold non-standard residues; d marks the D form. β3hCha = beta-3-homo-cyclohexylalanine, O=C(C[C@H](CC1CCCCC1)N[*:1])[*:2]; β3hW = N[C@H](CC(=O)O)Cc1c[nH]c2ccccc12; β3hF = N[C@H](CC(=O)O)Cc1ccccc1

Test: Peptide self-assembly / gelation conditions
Format: physicochemical
Conditions: for time of gelation (self-supporting gel formed) / gelation condition: TFA salt; for time of gelation (self-supporting gel formed): at its own gelation condition
Protocol: Peptide self-assembly was analyzed in i) a PBS solution (10 mM), ii) a PBS/mQ mixture (1:1 v:v, mQ water with a resistivity of […]) or iii) a NaCl aqueous solution (150 mM). The TFA salt of reference peptide SEQ NO. 23 (1 mg) was dissolved in 50 μl mQ water, followed by the addition of 50 μl PBS solution. This mixture was left to rest overnight, resulting in a 1% w/v hydrogel. The TFA salt of mixed α/β-peptides SEQ ID NO 1 and SEQ ID NO 2 (2 mg) was dissolved in mQ (100 μL) and PBS/mQ mixture (100 μL), respectively. […] The TFA salt of mixed α/β-peptide SEQ ID NO 3 (3 mg) was dissolved in PBS (100 μL) to probe gelation. All self-assembled gels were analyzed by circular dichroism (CD) and Fourier transform infrared (FT-IR) spectroscopy, as well as cryogenic transmission electron microscopy (Cryo-TEM).
(SEQ ID NO:22 (=10-mer)), 100 μl mQ water was added to 2 mg of TFA-salt of pure peptide, then vortexed and sonicated. As a result, a transparent self-supporting gel was formed immediately. A gelation condition of 2 w/v % in mQ water was found.
for H-Fβ^2hFEFQFK-NH2 (SEQ ID NO:19), 100 μl of PBS was added to 2 mg of TFA-salt of pure peptide, then vortexed and sonicated. After overnight resting, a self-supporting gel was formed. A gelation condition of 2 w/v % in PBS was determined.

H-Phe-Glu-β^3hPhe-Phe-Lys-OH (H-FE[β3hF]FK-OH; SMILES NCCCC[C@H](NC(=O)[C@H](Cc1ccccc1)NC(=O)C[C@H](Cc1ccccc1)NC(=O)[C@H](CCC(=O)O)NC(=O)[C@@H](N)Cc1ccccc1)C(=O)O) [SEQ ID NO 7]
Gelation condition % (w/v) (in mQ): 3% (mQ) % (w/v)

H-Phe-Glu-β^3hPhe-Phe-Gln-Phe-Lys-Phe-NH2 (H-FE[β3hF]FQFKF-NH2; SMILES NCCCC[C@H](NC(=O)[C@H](Cc1ccccc1)NC(=O)[C@H](CCC(N)=O)NC(=O)[C@H](Cc1ccccc1)NC(=O)C[C@H](Cc1ccccc1)NC(=O)[C@H](CCC(=O)O)NC(=O)[C@@H](N)Cc1ccccc1)C(=O)N[C@@H](Cc1ccccc1)C(N)=O) [SEQ ID NO 20]
Gelation condition % (w/v) (in mQ/PBS 1:1): 1.5% (mQ/PBS 1:1) % (w/v)

H-Phe-Glu-β^3hPhe-Phe-Lys-β^3hPhe-Phe-NH2 (H-FE[β3hF]FK[β3hF]F-NH2; SMILES NCCCC[C@H](NC(=O)[C@H](Cc1ccccc1)NC(=O)C[C@H](Cc1ccccc1)NC(=O)[C@H](CCC(=O)O)NC(=O)[C@@H](N)Cc1ccccc1)C(=O)N[C@H](CC(=O)N[C@@H](Cc1ccccc1)C(N)=O)Cc1ccccc1) [SEQ ID NO 16]
Gelation condition % (w/v) (in mQ): 2% (mQ) % (w/v)

H-Glu-β^3hPhe-Phe-Lys-β^3hPhe-Phe-NH2 (H-E[β3hF]FK[β3hF]F-NH2; SMILES NCCCC[C@H](NC(=O)[C@H](Cc1ccccc1)NC(=O)C[C@H](Cc1ccccc1)NC(=O)[C@@H](N)CCC(=O)O)C(=O)N[C@H](CC(=O)N[C@@H](Cc1ccccc1)C(N)=O)Cc1ccccc1) [SEQ ID NO 12]
Gelation condition % (w/v) (in mQ/PBS 1:0.5): 1.5% (mQ/PBS 1:0.5) % (w/v)

H-Phe-Glu-β^3Phe-Tyr-Gln-β^3hPhe-Tyr-Lys-OH (H-FE[β3hF]YQ[β3hF]YK-OH) [SEQ ID NO 4]
Gelation condition % (w/v) (in PBS): 2% (PBS) % (w/v)

H-β^3hPhe-Phe-Glu-β^3hPhe-Phe-Lys-NH2 (H-[β3hF]FE[β3hF]FK-NH2; SMILES NCCCC[C@H](NC(=O)[C@H](Cc1ccccc1)NC(=O)C[C@H](Cc1ccccc1)NC(=O)[C@H](CCC(=O)O)NC(=O)[C@H](Cc1ccccc1)NC(=O)C[C@@H](N)Cc1ccccc1)C(N)=O) [SEQ ID NO 10]
Gelation condition % (w/v) (in PBS): 1% (PBS) % (w/v)

H-Phe-Glu-Phe-Gln-β^3hPhe-Phe-Lys-NH2 (H-FEFQ[β3hF]FK-NH2; SMILES NCCCC[C@H](NC(=O)[C@H](Cc1ccccc1)NC(=O)C[C@H](Cc1ccccc1)NC(=O)[C@H](CCC(N)=O)NC(=O)[C@H](Cc1ccccc1)NC(=O)[C@H](CCC(=O)O)NC(=O)[C@@H](N)Cc1ccccc1)C(N)=O) [SEQ ID NO 18]
Gelation condition % (w/v) (in PBS): 2% (PBS) % (w/v)

H-Phe-Gln-β^3hPhe-Phe-Lys-NH2 (H-FQ[β3hF]FK-NH2; SMILES NCCCC[C@H](NC(=O)[C@H](Cc1ccccc1)NC(=O)C[C@H](Cc1ccccc1)NC(=O)[C@H](CCC(N)=O)NC(=O)[C@@H](N)Cc1ccccc1)C(N)=O) [SEQ ID NO 9]
Gelation condition % (w/v) (in PBS): 3% (PBS) % (w/v)

H-Phe-Glu-β^3hPhe-Phe-Lys-NH2 (H-FE[β3hF]FK-NH2; SMILES NCCCC[C@H](NC(=O)[C@H](Cc1ccccc1)NC(=O)C[C@H](Cc1ccccc1)NC(=O)[C@H](CCC(=O)O)NC(=O)[C@@H](N)Cc1ccccc1)C(N)=O) [SEQ ID NO 6]
Gelation condition % (w/v) (in PBS): 3% (PBS) % (w/v)

H-Phe-Glu-β^3hPhe-Phe-Gln-Phe-Gln-β^3hPhe-Phe-Lys-NH2 (H-FE[β3hF]FQFQ[β3hF]FK-NH2; SMILES NCCCC[C@H](NC(=O)[C@H](Cc1ccccc1)NC(=O)C[C@H](Cc1ccccc1)NC(=O)[C@H](CCC(N)=O)NC(=O)[C@H](Cc1ccccc1)NC(=O)[C@H](CCC(N)=O)NC(=O)[C@H](Cc1ccccc1)NC(=O)C[C@H](Cc1ccccc1)NC(=O)[C@H](CCC(=O)O)NC(=O)[C@@H](N)Cc1ccccc1)C(N)=O) [SEQ ID NO 22]
time of gelation (self-supporting gel formed): immediately | gelation condition (in mQ water): 2 w/v % | Gelation condition % (w/v) (in mQ): 2% (mQ) % (w/v)

H-Trp-Glu-β^3hPhe-Phe-Gln-Trp-Lys-NH2 (H-WE[β3hF]FQWK-NH2; SMILES NCCCC[C@H](NC(=O)[C@H](Cc1c[nH]c2ccccc12)NC(=O)[C@H](CCC(N)=O)NC(=O)[C@H](Cc1ccccc1)NC(=O)C[C@H](Cc1ccccc1)NC(=O)[C@H](CCC(=O)O)NC(=O)[C@@H](N)Cc1c[nH]c2ccccc12)C(N)=O) [SEQ ID NO 15]
Gelation condition % (w/v) (in PBS): 2% (PBS) % (w/v)

H-Trp-Glu-β^3hTrp-Trp-Gln-Trp-Lys-NH2 (H-WE[β3hW]WQWK-NH2; SMILES NCCCC[C@H](NC(=O)[C@H](Cc1c[nH]c2ccccc12)NC(=O)[C@H](CCC(N)=O)NC(=O)[C@H](Cc1c[nH]c2ccccc12)NC(=O)C[C@H](Cc1c[nH]c2ccccc12)NC(=O)[C@H](CCC(=O)O)NC(=O)[C@@H](N)Cc1c[nH]c2ccccc12)C(N)=O) [SEQ ID NO 14]
Gelation condition % (w/v) (in mQ/PBS 1:0.5): 1.5% (mQ/PBS 1:0.5) % (w/v)

H-Phe-β^3hPhe-Glu-Phe-Gln-Phe-Lys-NH2 (H-F[β3hF]EFQFK-NH2; SMILES NCCCC[C@H](NC(=O)[C@H](Cc1ccccc1)NC(=O)[C@H](CCC(N)=O)NC(=O)[C@H](Cc1ccccc1)NC(=O)[C@H](CCC(=O)O)NC(=O)C[C@H](Cc1ccccc1)NC(=O)[C@@H](N)Cc1ccccc1)C(N)=O) [SEQ ID NO 19]
time of gelation (self-supporting gel formed): overnight | gelation condition (in PBS): 2 w/v % | Gelation condition % (w/v) (in PBS): 2% (PBS) % (w/v)

H-Phe-Glu-Phe-Gln-Phe-Lys-β^3hPhe-Phe-NH2 (H-FEFQFK[β3hF]F-NH2; SMILES NCCCC[C@H](NC(=O)[C@H](Cc1ccccc1)NC(=O)[C@H](CCC(N)=O)NC(=O)[C@H](Cc1ccccc1)NC(=O)[C@H](CCC(=O)O)NC(=O)[C@@H](N)Cc1ccccc1)C(=O)N[C@H](CC(=O)N[C@@H](Cc1ccccc1)C(N)=O)Cc1ccccc1) [SEQ ID NO 21]
Gelation condition % (w/v) (in mQ/PBS 1:1): 1.5% (mQ/PBS 1:1) % (w/v)

H-Phe-Gln-β^3hPhe-Phe-Gln-β^3hPhe-Phe-Lys-OH (H-FQ[β3hF]FQ[β3hF]FK-OH; SMILES NCCCC[C@H](NC(=O)[C@H](Cc1ccccc1)NC(=O)C[C@H](Cc1ccccc1)NC(=O)[C@H](CCC(N)=O)NC(=O)[C@H](Cc1ccccc1)NC(=O)C[C@H](Cc1ccccc1)NC(=O)[C@H](CCC(N)=O)NC(=O)[C@@H](N)Cc1ccccc1)C(=O)O) [SEQ ID NO 5]
Gelation condition % (w/v) (in mQ): 2% (mQ) % (w/v)

H-β^3hPhe-Phe-Glu-Phe-Gln-Phe-Lys-NH2 (H-[β3hF]FEFQFK-NH2; SMILES NCCCC[C@H](NC(=O)[C@H](Cc1ccccc1)NC(=O)[C@H](CCC(N)=O)NC(=O)[C@H](Cc1ccccc1)NC(=O)[C@H](CCC(=O)O)NC(=O)[C@H](Cc1ccccc1)NC(=O)C[C@@H](N)Cc1ccccc1)C(N)=O) [SEQ ID NO 17]
Gelation condition % (w/v) (in PBS): 2% (PBS) % (w/v)

H-Phe-Glu-β^3hPhe-Phe-Gln-Phe-Lys-NH2 (H-FE[β3hF]FQFK-NH2; SMILES NCCCC[C@H](NC(=O)[C@H](Cc1ccccc1)NC(=O)[C@H](CCC(N)=O)NC(=O)[C@H](Cc1ccccc1)NC(=O)C[C@H](Cc1ccccc1)NC(=O)[C@H](CCC(=O)O)NC(=O)[C@@H](N)Cc1ccccc1)C(N)=O) [SEQ ID NO 13]
Gelation condition % (w/v) (in PBS): 2% (PBS) % (w/v)

H-Phe-Glu-β^3hCha-Phe-Gln-β^3hCha-Phe-Lys-OH (H-FE[β3hCha]FQ[β3hCha]FK-OH) [SEQ ID NO 8]
Gelation condition % (w/v) (in mQ): 3% (mQ) % (w/v)

H-Phe-Glu-β^3hPhe-Phe-Lys-Phe-NH2 (H-FE[β3hF]FKF-NH2; SMILES NCCCC[C@H](NC(=O)[C@H](Cc1ccccc1)NC(=O)C[C@H](Cc1ccccc1)NC(=O)[C@H](CCC(=O)O)NC(=O)[C@@H](N)Cc1ccccc1)C(=O)N[C@@H](Cc1ccccc1)C(N)=O) [SEQ ID NO 11]
Gelation condition % (w/v) (in PBS): 2% (PBS) % (w/v)
